The chains are these.
B1: DNA-directed RNA polymerase III subunit RPC3 (Homo sapiens), Q9BUI4 (parent)
chain: MTQAEIKLCSLLLQEHFGEIVEKIGVHLIRTGSQPLRVIAHDTGTSLDQVKKALCVLVQHNLVSYQVHKRGVVEYEAQCSRVLRMLRYPRYIYTTKTLYSDTGELIVEELLLNGKLTMSAVVKKVADRLTETMEDGKTMDYAEVSNTFVRLADTHFVQRCPSVPTTENSDPGPPPPAPTLVINEKDMYLVPKLSLIGKGKRRRSSDEDAAGEPKAKRPKYTTDNKEPIPDDGIYWQANLDRFHQHFRDQAIVSAVANRMDQTSSEIVRTMLRMSEITTSSSAPFTQPLSSNEIFRSLPVGYNISKQVLDQYLTLLADDPLEFVGKSGDSGGGMYVINLHKALASLATATLESVVQERFGSRCARIFRLVLQKKHIEQKQVEDFAMIPAKEAKDMLYKMLSENFMSLQEIPKTPDHAPSRTFYLYTVNILSAARMLLHRCYKSIANLIERRQFETKENKRLLEKSQRVEAIIASMQATGAEEAQLQEIEEMITAPERQQLETLKRNVNKLDASEIQVDETIFLLESYIECTMKRQ
partner: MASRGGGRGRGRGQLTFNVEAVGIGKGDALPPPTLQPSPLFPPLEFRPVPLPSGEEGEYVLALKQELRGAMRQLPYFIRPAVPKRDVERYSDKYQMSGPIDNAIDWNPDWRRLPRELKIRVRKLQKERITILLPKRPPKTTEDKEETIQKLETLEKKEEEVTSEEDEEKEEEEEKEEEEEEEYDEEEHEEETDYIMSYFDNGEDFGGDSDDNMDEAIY
B2: DNA-directed RNA polymerase III subunit RPC3 (Homo sapiens), Q9BUI4 (parent)
chain: B1 chain

The variants in one test derive from B1. The note with it: with rpc7l_human POLR3GL.
In the case of L312K, the “effect of a mutation on the interaction” value is reported as “disrupting interaction”.

Variants of B2 are the subject of a further test. Conditions: with rpc7_human POLR3G.
L312K: the “effect of a mutation on the interaction” value is recorded as “disrupting interaction”.

(Values after IntAct's records for PubMed 21358628.)
